# Paper PMC5935755
# Molecular target: ClpXP (ClpX ΔN-ter hexamer with ClpP tetradecamer) (UniProt P0A6H1)
row,"KM of ClpXP-mediated proteolysis (Michaelis-Menten analysis, loss of GFP fluorescence; 0.3 µM ClpX6, 0.9 µM ClpP14, 30 °C) [µM]",Substance
1,4.47,GFP-UCHL1_(I93M) (ssrA-tagged)
2,0.64,"GFP-BAP1 (UCH domain, residues 1-238, ssrA-tagged) (from UniProt Q92560 1-238)"

# More lines, now with the values behind:
row,Substance,"KM of ClpXP-mediated proteolysis (Michaelis-Menten analysis, loss of GFP fluorescence; 0.3 µM ClpX6, 0.9 µM ClpP14, 30 °C) [µM]"
1,GFP-UCHL3 (ssrA-tagged),2.59
2,"GFP-UCHL5 (UCH domain, residues 1-240, ssrA-tagged) (from UniProt Q9Y5K5 1-240)",1.85
3,GFP-UCHL1 (ssrA-tagged),3.67
